Test: label from the status in PepcDB records

Sequence | protein production
EAPLLYGDSSPEIVLVGHGSTYGVIKEIVDIFSKDKKIAMMHFSQIYPFPERDRFDYIEFLKNANLVISVENNATGQFAKLMRAETGFEFARQILKYDGRPFTIEKLKEEIDAC | not failed
ECTIKNNIENILRNSYINVGYEEVRSPTLEFYDVYNLENQPISQEKMYKLFDNTGRILVLRPDMTTPIARICATKLKNRVYPLKLSYTGNIYRMNKALNGKISEITQSGIEILGFSSLKADAEVIITAIKAILKTGLKNFKIEIGQVEFFKSIISDTALKEQDTEKLRNFIENKNFSKVEEFILRNSDLIGETSSKVLMNLPNLFGGKEVIEKAEQLTSNKQAIEALKKVRDLYDIVKRAGFGEYILIDLGMVQHINYYTGLIFRGYAHGIGDDLLSGGRYDKLLGQFGYDIPATGLAINVDNLVA | failed
EEGLEIATLKRIVADMHAAAETAGVHIVTGDTKVVPKGTCDKLYITTAGVGIIPEGRTSADPQIGDAIIVSGPIADHGMAVMMARGDLAISAPIESDTRSVNGQIEALYAAGVTPRWMRDATRGGLATVMNELARATGLGVALNDPLPVRDMTRAACDMLGIDPMYVANEGTFVAIVPADQVDTALATIPEASCIGQIVEQPAASVVLRTGFGGSRMVDMLVGDPLPRIC | failed
EELIEIREARMDDLDTIAKFNYNLAKETEGKELDMDVLTKGVKALLLDERKGKYHVYTVFDKVVAQIMYTYEWSDWRNGNFLWIQSVYVDKEYRRKGIFNYLFNYIKNICDKDENIVGMRLYVEKENINAKATYESLNMYECDYNMYEYEVIHS | not failed
EFYCEVLLLDESKLTLTTQQQGIKKSTKGSVVLDHVFHHVNLVEIDYFGLRYCDRSHQTYWLDPAKTLAEHKELINTGPPYTLYFGIK | failed
EIAVPTLFVHGYSGTANSFKGMINRLADDGIVTESLVMTVAADGSVSTTGSYDKFSHNPTIQVIFEDNKSSMVNQTQWIQNVMKELKNNYHIEKVDAVGHSMGGVSLTSYIEKVGSDKAYPVLENLVLIGAPLNGLVVGDNGVTAYDLTDEGPKQSSDRYSEFMKNKQKIPTNLQVLNIAGDMLDGTKSDGSVSVASALSGKFIFEGQAKSYEEKIFTGKKAAHSKLHENTDVDAKVANFLWGTEKVD | failed
EITSANTEWFFNPNAYVIIAESVESGKIVGGARIHIVGGTQPLPIEDAIGKMDPHIYKLVEEHGKKGSGELCGLWNAREVAGMGISTMLTRAAIALAIQLNLSTLFVICAERTYQNIFKDQGFEIIP | failed
EKEFYLDSSSEALEEKAITHTSKKPDTPEEITISLNGHLFTGNTEQPLLMQVEEAGLSINNSCRAGLCGACRVTLESGEVEQEDSPALNQKLKEAGMILACCSVPKTDVEIVD | failed
EKRKVLIPIDFSNYSLKACQFGFSFANAINSEVVLLHAYFSPIYVPTIPYGTDNFNFQIEREESVKSMIETVHNELNKLSDTIKKKVESGEFPNIKYTCILRDGIPEEEILRYAKEYNPQIIIMGTRGRSQKDIDLIGSVTAEVIERSKSFVYAIPEHTPLK | failed
EKTVRVVINFKKTQKTIVRVSPHASLQELAPIICSKCEFDPLHTLLLKDYQSQEPLDLTKSLNDLGLRELYAMDVNRE | not failed
ELEPGAFSELYQRYRHCDAPICLYEQGRDSFEDEGRWRLILCATCGSHGTHRDCSSLRPNSKKWECNECLPA | not failed
EMGVAYLTEVVVNEVVEAHEVPEVQHALNINSSESLIHIVRTRRLNQHVKIVDEDYFLKSIVSDIGNDVASDSIYDYLEKVLNLNISYSSKSITFEPFDEQAYQLFGDVSVAYSATVRSIVYLENTMPFQYNISKHLANEFKFNDFSRRRIK | failed
EPRVNTSALQKIAADMSNIIENLDTRELHFEGEEVDYDVSPSDPKIQEVYIPFSAIYNTQGFKEPNIQTYLSGCPIKAQVLEVERFTSTTRVPSINLYTIELTHGEFKWQVKRKFKHFQEFHRELLKYKAFIRIPIPTRRHTFRRQN | failed
EQEDRALRSFKLSVTVDPKYHPKIIGRKGAVITQIRLEHDVNIQFPDKDDGNQPQDQITITGYEKNTEAARDAILRIVGELEQM | not failed
EQITHWIVVQQDTTEQQRVQQAMRTQRDRLQRMQGVAQTGGWEYDPKSDSFTGSNEFYRLIGLPQSTNFDLERAFQLYPPSVRGRVKTAAQRCLEDGSPFDMEVPLVSATGQHREVRVRGSAEREEG | failed
EQNSKEKFKQLFRVLEDTFARPLSPYEIETLNQWIDVDKHDSAIIQAALDEANSLNKLSFKYMDRILLNWKKNNV | failed
ERIPLAVGDTPATLYRLEGDAEAPLAVVTHGFGGSRQMMEAISLTLARAGLAVVSFDFRGQGRSAIPMSPDAFPNEAGSSGTTVQLVRQTLEVVEAARALPGIAGPPALIGHSMATDILVRAADRLPEVGPVALISAYSRQVTPETPARLLILSGQREGGLREVALEMARQVAPDAAEGETVRAGAVERRASVAPYVGHAGVLWSPTTLRELRDWL | failed
ERRGFSAEDFKTFHPGGKLGSQLLLAHELAHSGEAVPLLPIGSPMSEAVIQMSSKGFGVVGVVGGDGELVGVITDGDLRRHMSQSLLLLTVETVMSHMPRVITPGMLASAAMEMMQSQKITVLFLVDDVGRPSGILHVHDLLRA | failed

Sequence | protein production
ERRKTLETYQQLFYLLQTNPLYLAKLIFQMPQNKSTKFMDTVIFTLYNYASNQREEYLLLKLFKTALEEEIKSKVDQVQDIVTGNPTVIKMVVSFNRGARGQNTLRQLLAPVVKEIIDDKSLIINTNPVEVYKAWVNQL | failed
ESILANLSAGVIAFSGDWHIRAANTSASRILGVDFSQLAEHRFPEWGGVMPAVASLVETVMQHADSDVESDWQTQLGYDTAQGERTLLVRGARLPEHSSDGYVLVFNDITE | failed
ESYTIPHPSYDQPDSYQEREIVIGNSTYPLPATLTVPKHQRGEKVPVVVLVHGAGIHDRDATYLGTKILRDLAVGLSSNGIAVLRYEKRTLEHALKMSAEPVTLDRDTTDDAIYAAKSAAQQEGIDPNNIFILGHSQGAGTMPRILSKAPSSLVRGSILLAPPAHPLTDIAIDQYQYLGKPQEEIDELKRQAAFIQDPTFNPDHPPAGYNFGSPHFMYDVSRWRPVEEAKSRKEPLLILQGARDYQVTVKNEYTKWQEGLANRRNVQFKKYPKLNHFFTEGDGELSLPSEYEIPANVPEYVIQDIITWVNETK | failed
ESYWRSRMIDAVTSDEDKVAPVYKLEEICDLLRSSHVSIVKEFSEFILKRLDNKSPIVKQKALRLIKYAVGKSGSEFRREMQRNSVAVRNLFHYKGHPDPLKGDALNKAVRETAHETISAIFSEENG | not failed
ETPVGLNLELTDQDGRPMFPDGSAVPYERTRKLVARLAAPLRATSLRVIIVGHTAATVVQAGDDDPLSLSVNRANAVREVLKQEGLPSSQVLSLVGKGDGEPLFPDAPALAANRRVTITLMRENPPLPPDLQR | failed
ETRIIKGFECKPHSQPWQAALFEKTRLLCGATLIAPRWLLTAAHCLKPRYIVHLGQHNLQKEEGCEQTRTATESFPHPGFNNSLPNKDHRNDIMLVKMASPVSITWAVRPLTLSSRCVTAGTSCLISGWGSTSSPQLRLPHTLRCANITIIEHQKCENAYPGNITDTMVCASVQEGGKDSCQGDSGGPLVCNQSLQGIISWGQDPCAITRKPGVYTKVCKYVDWIQETMKNN | failed
EVALRHPQSPKPCLIGNCQGGWAILTLMAANPDVAGVAVVNGAPLSYWGGENGKNPMRYIGGIWGGSWIAQMAGDLGNGKFDGANLVMNFEMANPKVTYWSKYYNLFANLDKEEIRFLNFERWWGGFSLLNVNEMRGIIDNLFIGNKLVHGKIPLGQSGNNLDLRNISVPVIIFCSEGDNITPPQQALNWVSDLYSNTLEIKLDGQVIVYLIHKSVGHLGIFVSSEVAKKEHNQIIDLLN | not failed
EYQVLNLFICGIGTVGGSLVEQIRCQQQKLMMENGLKLHVVGIIDAAKAMFSREGFDLANFREELQKKGKDSNLQTIRDEIVGMNIFNSVFVDCTASPDIASLYKDLLQHNVSVVAANKIAASSAYENYRELKTIARQRGVKYLFETNVGAGLPIINTINDLIHSGDKILKIEAVLSGTLNYIFNK | failed
FCGRARVHTDFTPSPYDTDSLKLKKGDIIDIISKPPMGTWMGLLNNKVGTFKFIYVDVLS | not failed
FDASTLYVPEDFLNSCTPGMRKWWQIKSQNFDLVICYKVGKFYELYHMDALIGVSELGLVFMKGNWAHSGFPEIAFGRYSDSLVQKGYKVARVEQTETPEMMEARCRKMAHISKYDRVVRREICRIITKGTQTYSVLEGDPSENYSKYLLSLKEKEEDSSGHTRAYGVCFVDTSLGKFFIGQFSDDRHCSRFRTLVAHYPPVQVLFEKGNLSKETKTILKSSLSCSLQEGLIPGSQFWDASKTLRTLLEEEYFREKLSDGIGVMLPQVLKGMTSESDSIGLTPGEKSELALSALGGCVFYLKKCLIDQELLSMANFEEYIPLDSDTVSTTRSGAIFTKAYQRMVLDAVTLNNLEIFLNGTNGSTEGTLLERVDTCHTPFGKRLLKQWLCAPLCNHYAINDRLDAIEDLMVVPDKISEVV | failed
FDGNLKRYLKSEPIPESNDGPVKVVVAENFDEIVNNENKDVLIEFYAPWCGHCKNLEPKYKELGEKLSKDPNIVIAKMDATANDVPSPYEVRGFPTIYFSPANKKLNPKKYEGGRELSDFISYLQREAT | not failed
FHWVNDGYADFDGFLAALSSRKRKAIRKERAQAQGFGGQIRELTGGDLRPEHWDAFWRFYQDTGARKWGSPYLTRAFFDIAHQTMADDMVLVLAERDGIPVAGALNFIGREALFGRYWGCVEHHPCLHFELCYYRAIDWAIAHGLARVEAGAQGEHKLARG | not failed
FKGKNLLVIQVESLENFVINKSVNGQEITPNLNKLLKNSLYFSNYNEEVNQGTTSDAELMTNTSIYPVSTGSTFFRYPDNKYYNSLPKILERQGYYTQAMHGDKGSYWNWKPALKSIGFQNIVDSTGFKDDENIGLGLSDGSFLRQAEPMVEASKGPWYNYVITMSGHAPFDLPTKYRELKINSELDSSYLGGYLQSVHYEDKQIGIFLDNLRKSGALDNTMVVIYGDHCGIHKYYQSDVETTKGAESWMIDNHKEVPLIVYNSSLKGKEITTTGGQIDLMPTILYLMGIDKNEYLNTAMGRNLLNTNESYAVWSNGEFIG | failed
FLEVNYYSRVLGMNRVMNVLLPEESDHNPNWTNDSLKDLPVLYLLHGMSGNHFDWQRKSDIERLLRQTKLAVIMPAADLAWYTNTDYGMNYFDAISQELPRKVASLFPQISTKRKKHFVAGMSMGGYGAFKLAFSSSYFSYAASLSGTLISSLNYPGFLDMEKQAYWKGIFGDLDKFSGSKNDIFELAKRQSNTGIELPKLYAWVGQQDFFYGANEKAIPRLRKMGYDVSYETNPGDHEWYYWSKYIENILQWLPINYQAEKRLS | failed
FPIPLPYCWLCRALIKRIQAMIPKGALAVAVAQVCRVVPLVAGGICQCLAERYSVILLDTLLGRMLPQLVCRLVLRCSM | failed
FRAAAVRVRVPATSANLGPGFDALGLALGLYDDVVVRVADSGLHIDIAGEGSETLPRDEKHLLVRSLRTAFDLLGGQPRGLEIVCANRIPHGRGLGSSSAAICAGIVAARAVTIGGEARLDDAALLDLATEIEGHPDNVAACLLGGFTLSWMES | failed
GAEKEDLVQEGILGLLKAIKFYDETKSSFSSFAFLCIRREMISAIRKANTQKHMVLNEALKTNAILEDSAYFDDEGHNINNYKSSESNPEEAYLLKEEIEEFKKFSENNFSKFEKEVLTYLIRGYSYREIATILSKNLKSIDNTIQRIRKKSEEWIKEEENIKR | not failed
GDGLKVSFDVTNTGKVAGADTPQLYVTSGQRKAMLRLAGFQKVDLAPGETKRVTLNVEPRILADYDTAKPGWTIAAGTYPLYVGRNAGEPVLTGSAKLKSWSR | failed

— a protein production outcome set (Wang et al. 2014)
